Target: the molecule itself
Assay: SEC; gel filtration on Superdex-200, 20 mM Tris-HCl pH 7.4, 50 mM NaCl, 5% glycerol; calibrated with ferritin, BSA and ovalbumin

| Protein | stoichiometry N |
| --- | --- |
| MyRF DBD core (proteolytically resistant, after limited proteolysis with trypsin) (domain or fragment, mouse, selenomethionyl substituted in the crystals (4 Se per molecule), Myelin-gene Regulatory Factor (MyRF), mouse, NP_001028653.1; trypsin-resistant core of about 24 kD, 210 residues, made from the expressed fragment 351-717; PDB 5H5P holds the crystallised chain; also called MyRF DBD core only; MyRF DBD (crystal structure); source: E. coli BL21 (DE3), nickel-sepharose, limited proteolysis with trypsin, purified (Superdex-75)) IKWQPHQQNKWATLYDANYKELPMLTYRVDADKGFNFSVGDDAFVCQKKNHFQVTVYIGMLGEPKYVKTPEGLKPLDCFYLKLHGVKLEALNQSINIEQSQSDRSKRPFNPVTVNLPPEQVTKVTVGRLHFSETTANNMRKKGKPNPDQRYFMLVVALQAHAQNQNYTLAAQISERIIVRAS | 3 |
| MyRF DBD after auto-cleavage (351–586 plus N-terminal his tag and linker) (domain or fragment, mouse, UniProt Q3UR85-3 351-586, looked up, Myelin-gene Regulatory Factor (MyRF), mouse, NP_001028653.1; N-terminal product (351-586) of auto-cleavage of the expressed fragment 351-717 (DBD and ICA); also called wild type MyRF DBD; source: E. coli BL21 (DE3), expressed as fragment 351-717, auto-cleaved, purified (nickel-sepharose); not shown: His6, N-terminal, kept) IKWQPHQQNKWATLYDANYKELPMLTYRVDADKGFNFSVGDDAFVCQKKNHFQVTVYIGMLGEPKYVKTPEGLKPLDCFYLKLHGVKLEALNQSINIEQSQSDRSKRPFNPVTVNLPPEQVTKVTVGRLHFSETTANNMRKKGKPNPDQRYFMLVVALQAHAQNQNYTLAAQISERIIVRASNPGQFESDSDVLWQRAQLPDTVFHHGRVGINTDRPDEALVVHGNVKVMGSLMHP | 3 |

Source: publication PMC5473870, “Crystal structure of the DNA-binding domain of Myelin-gene Regulatory Factor” (Scientific Reports, 2017)
